From patent publication US20260166158A1, “HSP90-BINDING CONJUGATES AND FORMULATIONS THEREOF” (Fusion Pharmaceuticals Inc., priority 2019, published 2026)

Legend:
[1] = tested on: NCI-H460 tumor model; assay: Distribution of cold (Lu175) analog of CMP6; assay type: in vivo
Protocol: In yet another study with the NCI-H460 tumor model, the distribution of the cold analog of CMP6 was measured at 24 hours and 72 hours.

[2] = tested on: NCI-H460 tumor-bearing mice (lung cancer); assay: Biodistribution: lutetium accumulation in tumor, plasma and healthy tissues by ICP-MS; assay type: in vivo; settings: for T/K (Tumor/Kidney ratio) / T/L (Tumor/Liver ratio) / T/P (Tumor/Plasma ratio) / Kidney uptake, % ID/g 24 h / Liver uptake, % ID/g 24 h / Plasma, % ID/g 24 h / Tumor uptake, % ID/g, 24 h / % ID/g uptake, H460 tumor, 24 h / % ID/g uptake, Kidney, 24 h / % ID/g uptake, Liver, 24 h / % ID/g uptake, Plasma, 24 h: 24 h; for Kidney uptake, % ID/g 24 h / Liver uptake, % ID/g 24 h / Plasma, % ID/g 24 h / Tumor uptake, % ID/g, 24 h: second table; for % ID/g uptake, H460 tumor, 24 h / % ID/g uptake, H460 tumor, 72 h / % ID/g uptake, Kidney, 24 h / % ID/g uptake, Kidney, 72 h / % ID/g uptake, Liver, 24 h / % ID/g uptake, Liver, 72 h / % ID/g uptake, Plasma, 24 h / % ID/g uptake, Plasma, 72 h: 0.5 mg/kg lutetium conjugate
Protocol: Lutetium accumulation was measured in tumor, plasma and healthy tissues of NCI-H460 tumor-bearing mice (lung cancer). NCJ-H460 tumor bearing mice were dosed with 0.5 mg/kg of lutetium conjugates. At the time points indicated, mice were sacrificed and tumor, liver, kidneys and plasma were taken. All tissues were analyzed for lutetium content by ICP-MS, and lutetium uptake in % ID/g determined by the following equation: […]
Biodistribution at 24 h and Tumor/Kidney ratio (T/K), Tumor/Liver ratio (T/L), Tumor/Plasma ratio (T/P) are give in the table below.

[3] = tested on: NCI-H460 tumor model; assay: Distribution of radioactive (177Lu) versus non-radioactive (175Lu) analog of CMP51; assay type: in vivo; settings: radioactive analog comprising Lu177
Protocol: In another study with the NCI-H460 tumor model, the distribution of the radioactive (hot) analog of CMP51 (177Lu) and the distribution of the non-radioactive (cold) analog of CMP51 (175Lu) at 24 hours and 72 hours were tested and compared.

[4] = target: T1, purified N-terminal HSP90a (Homo sapiens, UniProt P07900); assay: HSP90 binding, competitive fluorescence polarization assay
T1 construct: 350 ng of N-terminal HSP90a
Protocol: HSP90 binding was determined by a competitive fluorescence polarization assay with purified N-terminal HSP90a. A series of dilutions of the test compounds were prepared with 10% DMSO in assay buffer and 10 μl of the dilution was added to a 100 μl reaction so that the final concentration of DMSO is 1% in all reactions. The reactions were conducted at room temperature for 3 hours in a 100 μl mixture containing assay buffer, 5 nM FITC Labeled Geldanamycin, 350 ng of N-terminal HSP90a, and the test compound. Fluorescence intensity was measured at an excitation of 485 nm and an emission of 530 nm using a Tecan Infinite M1000 microplate reader. Fluorescence intensity is converted to fluorescence polarization using the Tecan Magellan6 software. The fluorescence polarization data were analyzed using the computer software, Graphpad Prism. The fluorescence polarization (FPt) in absence of the compound in each data set was defined as 100% activity. In the absence of protein and the compound, the value of fluorescent polarization (FPb) in each data set was defined as 0% activity. The percent activity in the presence of the compound was calculated according to the following equation: % activity=(FP−FPb)/(FPt−FPb)×100%, where FP=the fluorescence polarization in the presence of the compound. HSP90 binding data are below.

[5] = cold analog, 24 hours and 72 hours, FIG. 2

SMILES	T/K (Tumor/Kidney ratio) [2]	T/L (Tumor/Liver ratio) [2]	T/P (Tumor/Plasma ratio) [2]	Kidney uptake, % ID/g 24 h [2]	Liver uptake, % ID/g 24 h [2]	Plasma, % ID/g 24 h [2]	Tumor uptake, % ID/g, 24 h [2]	Kd [4]	% ID/g uptake, H460 tumor, 24 h [2]	% ID/g uptake, H460 tumor, 72 h [2]	% ID/g uptake, Kidney, 24 h [2]	% ID/g uptake, Kidney, 72 h [2]	% ID/g uptake, Liver, 24 h [2]	% ID/g uptake, Liver, 72 h [2]	% ID/g uptake, Plasma, 24 h [2]	% ID/g uptake, Plasma, 72 h [2]	further results
CCNC(=O)c1nnc(-c2cc(C(C)C)c(O)cc2O)n1-c1ccc(OC2CCN(C(=O)CCOCCOCCOCCOCCNC(=O)[C@H](CCCCNC(=O)CCCc3ccc(I)cc3)NC(=O)CN3CCN4CCN5CCN(CC3)CC(=O)[O][Lu]([O]C(=O)C4)[O]C(=O)C5)CC2)cc1 [CMP6]	5.48	4.98	1.98	0.62 % ID/g	0.68 % ID/g	1.72 % ID/g	3.40 % ID/g										kidney uptake and retention [1, 5]: significantly reduced kidney uptake and retention; liver uptake [1, 5]: significantly reduced; tumor to liver and tumor to kidney ratios at 72 hours ([1]; cold analog, 72 hours versus 24 hours): enhanced at 72 hours; tumor to liver and tumor to kidney ratios ([1]; cold analog, FIG. 2): High tumor to liver and tumor to kidney ratios; tumor retention selectivity (FIG. 2 legend) ([1]; non-radioactive analog comprising Lu175): selective tumor retention over kidney and liver
CCNC(=O)c1nnc(-c2cc(C(C)C)c(O)cc2O)n1-c1ccc(CN2CCN(C(=O)CCNC(=O)[C@@H](CCC(=O)O)NC(=O)[C@@H](CCC(=O)O)NC(=O)[C@@H](CCC(=O)O)NC(=O)COCCOCCNC(=O)CCCCn3cc(CN(CCCNC(=O)CC[C@H](C(=O)O)N4CCN5CCN6CC(=O)[O][Lu]([O]C(=O)C5)[C]5(C6)OC(=O)CN5CC4)C(=O)CCCNC(=O)CCCc4ccc(I)cc4)nn3)CC2)cc1 (some centres unmarked) [CMP51]	0.7	5.6	2.5	10.37 % ID/g	1.35 % ID/g	3.01 % ID/g	7.54 % ID/g										tumor exposure selectivity (FIG. 1 legend) [3]: selective tumor exposure with the exception of kidney
CCNC(=O)c1nnc(-c2cc(C(C)C)c(O)cc2O)n1-c1ccc(CN2CCN(C(=O)CCNC(=O)[C@@H](CCC(=O)N3CCN(Cc4ccc(-n5c(C(=O)NCC)nnc5-c5cc(C(C)C)c(O)cc5O)cc4)CC3)NC(=O)CCNC(=O)[C@@H](CCC(=O)O)NC(=O)[C@@H](CCC(=O)O)NC(=O)[C@@H](CCC(=O)O)NC(=O)COCCOCCNC(=O)CNC(=O)[C@H](CCCCN)NC(=O)CNC(=O)CC[C@H](C(=O)O)N3CCN4CCN5CCN(CC3)CC(=O)[O][Lu]([O]C(=O)C5)[O]C(=O)C4)CC2)cc1 [T9]								0.47 nM	2.43 % ID/g	0.93 % ID/g	8.15 % ID/g	2.78 % ID/g	0.62 % ID/g	0.25 % ID/g	26.50 % ID/g	1.53 % ID/g	
CCNC(=O)c1nnc(-c2cc(C(C)C)c(O)cc2O)n1-c1ccc2c(ccn2CCC2CCN(C(=O)CC[C@H](NC(=O)CC[C@H](C(=O)O)N3CCN4CCN5CCN(CC3)CC(=O)[O][Lu]([O]C(=O)C5)[O]C(=O)C4)C(=O)N3CCC(CCn4ccc5cc(-n6c(C(=O)NCC)nnc6-c6cc(C(C)C)c(O)cc6O)ccc54)CC3)CC2)c1 [T10]								0.77 nM	3.91 % ID/g	3.18 % ID/g	14.70 % ID/g	7.74 % ID/g	7.28 % ID/g	4.34 % ID/g	2.29 % ID/g	0.37 % ID/g	
CCNC(=O)c1nnc(-c2cc(C(C)C)c(O)cc2O)n1-c1ccc(OC2CCN(C(=O)CCNC(=O)[C@@H](CCC(=O)O)NC(=O)[C@@H](CCC(=O)O)NC(=O)[C@@H](CCC(=O)O)NC(=O)COCCOCCNC(=O)[C@H](CCCCNC(=O)CC[C@H](C(=O)O)N3CCN4CCN5CCN(CC3)CC(=O)[O][Lu]([O]C(=O)C5)[O]C(=O)C4)NC(=O)CCCc3ccc(I)cc3)CC2)cc1 [T11]								0.7 nM	6.37 % ID/g	1.74 % ID/g	14.90 % ID/g	5.21 % ID/g	1.03 % ID/g	0.46 % ID/g	0.51 % ID/g	0.02 % ID/g	
CCNC(=O)c1nnc(-c2cc(C(C)C)c(O)cc2O)n1-c1ccc(CN2CCN(C(=O)CCNC(=O)[C@@H](CCC(=O)N3CCN(Cc4ccc(-n5c(C(=O)NCC)nnc5-c5cc(C(C)C)c(O)cc5O)cc4)CC3)NC(=O)CCNC(=O)[C@@H](CCC(=O)O)NC(=O)[C@@H](CCC(=O)O)NC(=O)[C@@H](CCC(=O)O)NC(=O)COCCOCCNC(=O)[C@H](Cc3ccccc3)NC(=O)CNC(=O)[C@H](CCCCNC(=O)CC[C@H](C(=O)O)N(CC)CCN3CCN4CCN(C)CC(=O)[O][Lu]([O]C(=O)C4)[O]C(=O)C3)NC(=O)CCCc3ccc(I)cc3)CC2)cc1 [T15]								0.43 nM	2.16 % ID/g	0.70 % ID/g	12.50 % ID/g	4.37 % ID/g	1.78 % ID/g	1.16 % ID/g	2.79 % ID/g	0.14 % ID/g	
